# Experimental data as given in publication PMC3500696.
# Like-named read-outs stand apart in the source and are kept apart here.
# B1: recombinant human Interleukin 34 (ligand)
# chain: NEPLEMWPLTQNEECTVTGFLRDKLQYRSRLQYMKHYFPINYKISVPYEGVFRIANVTRLQRAQVSERELRYLWVLVSLSATESVQDVLLEGHPSWKYLQEVETLLLNVQQGLTDVEVSPKVESVLSLLNAPGPNLKLVRPKALLDNCFRVMELLYCSCCKQSSVLNWQDCEVPSPQSCSPEPSLQYAATQLYPPPPWSPSSPPHSTGSVRPVRAQGEGLLP
# Key:
# [1] = target: porcine CSF-1R expressed in Ba/F3 cells (pig)
# [2] = target: porcine CSF-1R expressed in Ba/F3 cells (pig); remark: listed apart in the source
molecule,measurement,setting,value
bacterially produced porcine CSF-1 (active fragment Ser36-Arg189) (ligand),"EC50, MTT cell viability assay, Ba/F3 cells expressing porcine CSF-1R",[1],0.029 µg/mL
recombinant human CSF-1 (from UniProt P09603 33-554) (ligand),"EC50, MTT cell viability assay, Ba/F3 cells expressing porcine CSF-1R (compared with rhIL-34)",[2],0.1 µg/mL
same,"EC50, MTT cell viability assay, Ba/F3 cells expressing porcine CSF-1R (compared with bacterially produced porcine CSF-1)",[1],0.034 µg/mL
B1,"EC50, MTT cell viability assay, Ba/F3 cells expressing porcine CSF-1R",[2],0.137 µg/mL
